Data from patent publication US20060104978A1, “Methods and compositions for PDGF-C activation and inhibition” (LUDWIG INSTITUTE FOR CANCER RESEARCH, priority 2003, published 2006).

Target: latent PDGF-DD (Homo sapiens, UniProt Q9GZP0)
Assay: Cotransfection assay in COS-1 cells: protease plus full-length PDGF-D
Format: cell-based
Parameters: cotransfected with full-length PDGF-C (Li et al, 2000), full-length PDGF-D (Bergsten et al, 2001); expressed in transfected cells; host or cells: COS-1 cells
Details: COS-1 conditioned medium, immunoblot
Text: A cotransfection assay was established to identify serine proteases able to cleave and activate latent PDGF-CC. Expression plasmids encoding the relevant enzymes and full-length PDGF-C were cotransfected into COS-1 cells, and aliquots of the conditioned media from the transfectants were subjected to SDS-PAGE and immunoblotting using antibodies to the growth factor domain of PDGF-C. […] As a specificity control, the ability of tPA and NT to use full-length PDGF-DD as the substrate in the cotransfection assay was analysed. […] One difference in the latter results, as compared with the results from the cotransfection assay, was that purified tPA generated a second intermediate species of 32 kDa using latent PDGF-CC as the substrate. […]
To test the endogenous expression of PDGF-CC, subconfluent AG1523 cells and primary fibroblast cultures were cultured in serum-free DMEM overnight. […] In the case of the primary cultures, total protein concentration was measured and normalized (Bradford, 1976). […] PDGF-C and PDGF-D were detected by immunoblotting using affinity-purified polyclonal rabbit antibodies against PDGF-C (Li et al, 2000) and PDGF-D (Bergsten et al, 2001), respectively. The His6-tagged proteins were detected using an anti-His monoclonal antibody (C-terminal, Invitrogen). tPA was detected using sheep polyclonal antibodies against human tPA (ab9030, Abcam).

tPA: tissue plasminogen activator, secreted serine protease; expressed, purified from human melanoma cells or recombinant
cleavage and activation of latent PDGF-DD by the coexpressed protease: neither of the two enzymes was able to cleave and activate latent PDGF-DD
